Assay [1] addresses T1, human TIGIT fused to a beta galactosidase fragment, expressed on YTS cells (human, UniProt Q495A1 22-244).
T1 sequence (looked up): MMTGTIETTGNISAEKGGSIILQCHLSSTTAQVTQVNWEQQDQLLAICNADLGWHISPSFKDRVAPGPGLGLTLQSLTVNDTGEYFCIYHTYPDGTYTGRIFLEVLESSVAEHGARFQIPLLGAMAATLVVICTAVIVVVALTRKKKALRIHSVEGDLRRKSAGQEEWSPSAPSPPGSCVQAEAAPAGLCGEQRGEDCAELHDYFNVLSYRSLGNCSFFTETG
The assay is described as follows: cell-based or functional assay.

The next assay has as its target T2, biotinylated human TIGIT (human, UniProt Q495A1 22-141, biotinylated (EZ-Link NHS-PEG4-biotin kit)).
T2 construct: extracellular domain; also called human TIGIT extra cellular domain; TIGIT-ECD
T2 sequence (looked up): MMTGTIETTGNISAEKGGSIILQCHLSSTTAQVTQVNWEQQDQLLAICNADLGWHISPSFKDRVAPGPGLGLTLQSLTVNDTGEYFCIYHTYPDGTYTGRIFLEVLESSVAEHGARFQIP
The assay is described as follows: competitive ELISA, biotin-hTIGIT to coated PVR. As to the method:
(§1) Antibodies were serially diluted in a 10-point curve starting at 1 μM in 3-fold steps. […] Units are in microM.
For orientation: ELISA stands for enzyme-linked immunosorbent assay.

Assay [2] addresses T1, human TIGIT fused to a beta …. The assay is described as follows: cell-based or functional assay. This is another data set of the same source.
Assay [3] concerns the target T3, mouse TIGIT-Fc (mouse, UniProt P86176 29-148).
T3 construct: extracellular domain; also called mouse TIGIT extra cellular domain
T3 sequence (looked up): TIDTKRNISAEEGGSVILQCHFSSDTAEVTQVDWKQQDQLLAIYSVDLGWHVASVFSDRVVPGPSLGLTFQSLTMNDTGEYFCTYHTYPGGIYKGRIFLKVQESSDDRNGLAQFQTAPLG
The assay is described as follows: competitive ELISA, mTIGIT-Fc to coated PVR. As to the method:
as §1

Assay [4] deals with T4, mouse TIGIT-Fc (mouse, UniProt P86176 29-148).
T4 construct: extracellular domain; also called mouse TIGIT-ECD; not shown: Fc
T4 sequence (looked up): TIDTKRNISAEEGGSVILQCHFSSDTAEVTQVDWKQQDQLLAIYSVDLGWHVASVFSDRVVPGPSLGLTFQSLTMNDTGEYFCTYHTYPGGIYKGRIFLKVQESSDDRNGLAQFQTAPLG
The assay is described as follows: competitive ELISA vs coated PVR. Here is the method: as §1

For assay [5], the target named is T5, His-tagged recombinant Mouse TIGIT (mouse, UniProt P86176 29-148, limits assumed).
T5 construct: Coated on the plate at 0.5 µg/mL in the direct ELISA; not shown: His tag
T5 sequence (looked up): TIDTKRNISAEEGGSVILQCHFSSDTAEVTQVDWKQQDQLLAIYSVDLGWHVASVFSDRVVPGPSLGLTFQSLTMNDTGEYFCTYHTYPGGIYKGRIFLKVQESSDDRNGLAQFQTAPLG
The assay is described as follows: ELISA. As to the method:
(§2) Binding affinities for antigen binding to anti-TIGIT monoclonal antibodies were determined by ELISA. […] Antibodies to be tested were diluted to 1 μM in PBS buffer containing 1% BSA and diluted 3-fold in a 10-point curve. […] Detection of the secondary antibody was determined using streptavidin-HRP and TMB reagent. All assays were performed at room temperature. Curve-fitting software was used to determine the EC₅₀ for each antibody.

Assay [6] has as its target T6, human TIGIT expressed in YTS cells, fused to a portion of beta galactosidase (human, UniProt Q495A1 22-244).
T6 sequence (looked up): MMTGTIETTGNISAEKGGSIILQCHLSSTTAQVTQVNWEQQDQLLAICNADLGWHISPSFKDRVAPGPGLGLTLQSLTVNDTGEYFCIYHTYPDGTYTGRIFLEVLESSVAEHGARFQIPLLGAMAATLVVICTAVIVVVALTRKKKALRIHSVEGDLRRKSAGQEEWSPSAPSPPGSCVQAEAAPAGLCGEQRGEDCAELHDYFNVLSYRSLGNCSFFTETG
The assay is described as follows: cell-based or functional assay.

Assay [7] deals with T7, biotinylated human TIGIT extra cellular domain (human, UniProt Q495A1 22-141, biotinylated using the EZ-Link NHS-PEG4-biotin kit).
T7 construct: extracellular domain; also called human TIGIT-ECD
T7 sequence (looked up): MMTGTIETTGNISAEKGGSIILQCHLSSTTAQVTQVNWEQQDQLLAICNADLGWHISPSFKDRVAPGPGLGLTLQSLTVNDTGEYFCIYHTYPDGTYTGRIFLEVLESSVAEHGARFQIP
In words: competitive ELISA vs coated PVR. Here is the method:
as §1

The target in assay [8] is T8, His-tagged recombinant Human TIGIT (human, UniProt Q495A1 22-141).
T8 construct: Coated on the plate at 0.5 µg/mL in the direct ELISA; also called hTIGIT; not shown: His tag
T8 sequence (looked up): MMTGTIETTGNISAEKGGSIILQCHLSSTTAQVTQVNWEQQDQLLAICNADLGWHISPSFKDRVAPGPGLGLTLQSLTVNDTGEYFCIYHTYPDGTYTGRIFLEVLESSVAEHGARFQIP
The assay is described as follows: ELISA. Here is the method:
as §2

B1: Ab143 (Fab, V domains shown)
VH: EVQLLESGGGLVQPGGSLRLSCAASGFTFSSYSMHWVRQAPGKGLEWVAAINSNAGSSSYADSVKGRFTISRDNSKNTLYLQMNSLRAEDTAVYYCARVPYGVWMDYWGQGTLVTVSS
VL: not shown
notes: clone from a phage library of monovalent human Fabs; also called clone Ab143
In the case of B1, in [1], the “IC50 of inhibition of Grb2 recruitment (YTS_hTIGIT/hGrb2, 221_hPVR/ICAM, 11 pt)” value amounted to 60.2 nM. The IC50 in the assay with biotinylated human TIGIT amounted to 20.3 nM; with mouse TIGIT-Fc [3], 22 nM. Also, the “EC50 of induced dimerization (YTS_hTIGIT/hTIGIT, 11 pt)” value in assay [2] is 4.7 nM.

B2: Ab117 (Fab, V domains shown)
VH: EVQLLESGGGLVQPGGSLRLSCAASGFTFSSYAMSWVRQAPGKGLEWVAAIKSSASTIYYADSVKGRFTISRDNSKNTLYLQMNSLRAEDTAVYYCAREPYSVWMDYWGQGTLVTVSS
VL: not shown
notes: ARE
On to B2, for which the IC50 in the assay with mouse TIGIT-Fc [4] was 23.4 nM. Moreover, the concentration for a half-maximal effect (EC50) in assay [5] came to 10.7 nM. Also, in [6], the “YTS_hTIGI/hGrbs_EFC_Agonism (EC50)” value is above 1000 nM, the “YTS_hTIGI/hGrbs_EFC_Antagonism (IC50)” value is above 1000 nM and the “YTS_hTIGIT/hTIGIT_EFC (EC50)” value is above 1000 nM.

B3: Ab143 (Fab, V domains shown)
VH: EVQLLESGGGLVQPGGSLRLSCAASGFTFSSYSMHWVRQAPGKGLEWVAAINSNAGSSSYADSVKGRFTISRDNSKNTLYLQMNSLRAEDTAVYYCARVPYGVWMDYWGQGTLVTVSS
VL: not shown
notes: ARV
In the case of B3, the IC50 in assay [7] was 20.3 nM; with mouse TIGIT-Fc [4], 22 nM. Moreover, the figures for the EC50 in assay [8] and in [5] were 3.4 nM and 5.7 nM, respectively. In assay [6], the “YTS_hTIGI/hGrbs_EFC_Agonism (EC50)” value is above 1000 nM. Besides, the “YTS_hTIGI/hGrbs_EFC_Antagonism (IC50)” value in assay [6] turned out to be 60.2 nM. Also, the “YTS_hTIGIT/hTIGIT_EFC (EC50)” value in assay [6] came to 4.7 nM.

The IC50 is the midpoint of a concentration-inhibition curve. A lower IC50 goes with greater potency in that assay. In general, EC50 refers to the concentration needed to bring the measured effect to its halfway point.
